For two substances, OD450 and EC50 (read off the curve) results are on record in patent US20170152307A1.

One experiment concerns the target tau 194-212 (human). Put plainly: peptide ELISA.
For experiment [1], the target named is ptau 194-212 (pS202, pT205) (human). Put plainly: peptide ELISA, 1 ug/mL IgG. For orientation: An ELISA detects its analyte on a solid surface through an enzyme-linked reagent.
For experiment [2] the target is unchanged. Put plainly: peptide ELISA, biotinylated peptide on streptavidin plate, IgG titrated (Example 6).
In a further experiment the target is ptau 188-205 (human). Put plainly: peptide ELISA.
The target of another experiment is ptau 188-206 (human). Nature of the experiment: peptide ELISA.
The target of a further experiment is ptau 189-206 (human). Nature of the experiment: peptide ELISA.
Another experiment addresses ptau 189-209 (human). Nature of the experiment: peptide ELISA.
Another experiment concerns the target ptau 192-209 (human). Nature of the experiment: peptide ELISA.
The target of the next experiment is ptau 192-215 (human). Put plainly: peptide ELISA.
A further experiment concerns the target ptau 192-217 (human). Nature of the experiment: peptide ELISA.
Another experiment concerns the target tau 186-253 (human). Nature of the experiment: peptide ELISA.
The next experiment has as its target tau 190-209 (human). Nature of the experiment: peptide ELISA.
The target in experiment [3] is ptau 187-212 (pY197, pT205; as printed in Table 11) (human). Nature of the experiment: peptide ELISA, 2 ug/mL IgG.
For the next experiment, the target named is ptau 188-209 (human). Put plainly: peptide ELISA, 2 ug/mL IgG.
A further experiment concerns the target ptau 188-212 (human). Put plainly: peptide ELISA, 2 ug/mL IgG.
Another experiment deals with ptau 189-212 (human). Nature of the experiment: peptide ELISA, 2 ug/mL IgG.
The next experiment addresses ptau 192-212 (human). Put plainly: peptide ELISA, 2 ug/mL IgG.
In experiment [4] the target is ptau 194-212 (pS202, pT205) (human). Nature of the experiment: peptide ELISA, 2 ug/mL IgG.
In experiment [5] the target is ptau 187-212 (A187) (human). Nature of the experiment: alanine-scan peptide ELISA, 1 ug/mL IgG.
In experiment [6] the target is ptau 187-212 (A188) (human). Nature of the experiment: alanine-scan peptide ELISA, 1 ug/mL IgG.
Experiment [7] addresses ptau 187-212 (A189) (human). Put plainly: alanine-scan peptide ELISA, 1 ug/mL IgG.
The target of experiment [8] is ptau 187-212 (A190) (human). Nature of the experiment: alanine-scan peptide ELISA, 1 ug/mL IgG.
Experiment [9] concerns the target ptau 187-212 (A191) (human). Put plainly: alanine-scan peptide ELISA, 1 ug/mL IgG.
The target of experiment [10] is ptau 187-212 (A192) (human). Put plainly: alanine-scan peptide ELISA, 1 ug/mL IgG.
The target in experiment [11] is ptau 187-212 (A193) (human). Nature of the experiment: alanine-scan peptide ELISA, 1 ug/mL IgG.
Experiment [12] deals with ptau 187-212 (A194) (human). Nature of the experiment: alanine-scan peptide ELISA, 1 ug/mL IgG.
Experiment [13] concerns the target ptau 187-212 (A195) (human). Nature of the experiment: alanine-scan peptide ELISA, 1 ug/mL IgG.
Experiment [14] addresses ptau 187-212 (A196) (human). Nature of the experiment: alanine-scan peptide ELISA, 1 ug/mL IgG.
The target of experiment [15] is ptau 187-212 (A197) (human). Nature of the experiment: alanine-scan peptide ELISA, 1 ug/mL IgG.
The target in experiment [16] is ptau 187-212 (A198) (human). Nature of the experiment: alanine-scan peptide ELISA, 1 ug/mL IgG.
The target of experiment [17] is ptau 187-212 (A199) (human). Nature of the experiment: alanine-scan peptide ELISA, 1 ug/mL IgG.
Experiment [18] has as its target ptau 187-212 (A200) (human). Put plainly: alanine-scan peptide ELISA, 1 ug/mL IgG.
Experiment [19] concerns the target ptau 187-212 (A201) (human). Nature of the experiment: alanine-scan peptide ELISA, 1 ug/mL IgG.
In experiment [20] the target is ptau 187-212 (A202) (human). Put plainly: alanine-scan peptide ELISA, 1 ug/mL IgG.
Experiment [21] concerns the target ptau 187-212 (A203) (human). Nature of the experiment: alanine-scan peptide ELISA, 1 ug/mL IgG.
In experiment [22] the target is ptau 187-212 (A204) (human). Put plainly: alanine-scan peptide ELISA, 1 ug/mL IgG.
The target in experiment [23] is ptau 187-212 (A205) (human). Put plainly: alanine-scan peptide ELISA, 1 ug/mL IgG.
The target of experiment [24] is ptau 187-212 (A206) (human). Nature of the experiment: alanine-scan peptide ELISA, 1 ug/mL IgG.
Experiment [25] addresses ptau 187-212 (A207) (human). Nature of the experiment: alanine-scan peptide ELISA, 1 ug/mL IgG.
For experiment [26], the target named is ptau 187-212 (A208) (human). Put plainly: alanine-scan peptide ELISA, 1 ug/mL IgG.
The target in experiment [27] is ptau 187-212 (A209) (human). Nature of the experiment: alanine-scan peptide ELISA, 1 ug/mL IgG.
In experiment [28] the target is ptau 187-212 (A210) (human). Put plainly: alanine-scan peptide ELISA, 1 ug/mL IgG.
Experiment [29] has as its target ptau 187-212 (A211) (human). Put plainly: alanine-scan peptide ELISA, 1 ug/mL IgG.
Experiment [30] concerns the target ptau 187-212 (A212) (human). Put plainly: alanine-scan peptide ELISA, 1 ug/mL IgG.
In experiment [31] the target is ptau 187-212 (pS202, pT205; as printed in Table 22) (human). Nature of the experiment: alanine-scan peptide ELISA, 1 ug/mL IgG.

Chain of CBTAU-7.1 (antibody) (VH): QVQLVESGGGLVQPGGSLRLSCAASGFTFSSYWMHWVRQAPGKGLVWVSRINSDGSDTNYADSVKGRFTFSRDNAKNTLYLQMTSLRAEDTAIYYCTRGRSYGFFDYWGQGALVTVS
Chain of CBTAU-7.1 (antibody) (VL): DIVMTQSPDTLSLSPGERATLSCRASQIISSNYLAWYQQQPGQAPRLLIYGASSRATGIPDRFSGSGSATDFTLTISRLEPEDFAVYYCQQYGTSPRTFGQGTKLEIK
Chain of tau 194-212 (human) (peptide, as listed by the source): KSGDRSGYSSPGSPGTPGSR
Chain of tau 186-253 (human) (peptide, as listed by the source limits assumed): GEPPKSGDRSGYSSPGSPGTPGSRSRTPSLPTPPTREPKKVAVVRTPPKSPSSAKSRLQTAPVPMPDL

For the substance “AT8 monoclonal antibody (Thermo, MN1020)”, the OD450 with tau 194-212 (human) was below 0.3 od; in [1], above 1.5 od. In addition, in [2], the EC50 (read off the curve) stood at 0.1 µg/mL.

Take CBTAU-7.1 (antibody): the OD450 with ptau 188-205 (human), in the experiment with ptau 188-206 (human), in the experiment with ptau 189-206 (human), with ptau 189-209 (human), with ptau 192-209 (human) and with ptau 192-215 (human) was below 0.3 od each time. In addition, the OD450 is below 0.3 od with ptau 192-217 (human); below 0.3 od in the experiment with tau 186-253 (human); below 0.3 od with tau 190-209 (human); below 0.3 od in the experiment with tau 194-212 (human); 1 to 1.5 od in experiment [1]; 0.5 to 1 od in experiment [3]. Further, the OD450 in the experiment with ptau 188-209 (human) is above 1.5 od; in the experiment with ptau 188-212 (human) it was 0.5 to 1 od; with ptau 189-212 (human), 1 to 1.5 od; with ptau 192-212 (human), 1 to 1.5 od; in experiment [4] it was 1 to 1.5 od; in experiment [5], 1 to 1.5 od. Moreover, the OD450 in [6] was 1 to 1.5 od; in [7] it was 1 to 1.5 od; in [8], above 1.5 od; in [9] it was above 1.5 od; in experiment [10], above 1.5 od; in [11] it was above 1.5 od. The OD450 is above 1.5 od in experiment [12]; above 1.5 od in [13]; above 1.5 od in [14]; above 1.5 od in experiment [15]; above 1.5 od in experiment [16]; 1 to 1.5 od in [17]. Besides, the OD450 in experiment [18] was 1 to 1.5 od; in experiment [19] it was above 1.5 od; in experiment [20] it was 1 to 1.5 od; in experiment [21], above 1.5 od; in experiment [22] it was 0.5 to 1 od; in experiment [23], 0.5 to 1 od. The OD450 in experiment [24] is 0.5 to 1 od; in [25], above 1.5 od; in experiment [26], above 1.5 od; in [27], above 1.5 od; in experiment [28] it was above 1.5 od; in experiment [29], above 1.5 od. Further, the OD450 in [30] and in experiment [31] was above 1.5 od throughout.

What is called EC50 (read off the curve) is the concentration needed to bring the measured effect to its halfway point. Higher therefore signals weaker potency.
